B1: 1133C11 human IgG4 (antibody, V domains shown)
VH: EVQLVQSGAEVKKPGSSVKVSCKASGGTFSTYGISWVRQAPGQGLEWIGGIIPIFDTGNSAQSFQGRVTITADESTSTAYMEVSSLRSDDTAVYYCASSSRIYDLNPSLTAYYDMDVWGQGTMVTVSS
VL: QAVLTQPSSVSTPPGQKVTISCSGSSSNIGNNYVSWYQQLPGTAPKLLIYDNNKRPSGIPDRFSGSKSGTSATLGITGLQTGDEADYYCGTWDSSLSAWVFGGGTKLTVL
B2: 1160E3 human IgG4 (antibody, V domains shown)
VH: B1 VH with V18A
VL: QAVLTQPSSVSTPPGQKVTISCSGSNSNIGNNYVSWYQQLPGTAPKLLIYDNNKRPSGIPDRFSGSKSGTSATLGITGLQTGDEADYYCGTWDSSLSAWVFGGGTKLTV
B3: 1175H8 human IgG4 (antibody, V domains shown)
VH: B1 VH with G44R, L105A, N106T, P107T, S108G, A111P
VL: B1 VL with Q80R
B4: G1165D4 human IgG4 (antibody, V domains shown)
VH: B1 VH with E1Q, I48M, V83L, D89E, S98R
VL: B2 VL with A2S, S8P, T12A, P13A, N26S, G30E
B5: 1155H1 human IgG4 (antibody, V domains shown)
VH: B1 VH with L105F, N106H, P107L, S108A, L109N, T110K, A111G
VL: B1 VL with V18A, G75D
B6: 1158A1 human IgG4 (antibody, V domains shown)
VH: B1 VH with D56G, L105H, N106H, P107N, S108H, L109V, T110G, A111G
VL: B1 VL with V34A, S94G
B7: 1165D4 human IgG4 (antibody, V domains shown)
VH: B1 VH
VL: B1 VL with G30E
B8: 1152H5 human IgG4 (antibody, V domains shown)
VH: B1 VH with E46V, L105M, N106I, P107S, T110Q, A111P
VL: B1 VL with V18A

Substitutions are numbered along the chain they refer to.

Chain of mouse nerve growth factor (P01139 122-241): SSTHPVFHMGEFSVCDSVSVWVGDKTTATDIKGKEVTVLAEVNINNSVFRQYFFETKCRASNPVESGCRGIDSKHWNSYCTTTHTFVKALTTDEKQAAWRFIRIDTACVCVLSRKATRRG

The target in the first experiment is human nerve growth factor (beta-NGF) (human, UniProt P01138 122-241). In words: cell-based or functional assay.
Chain of human nerve growth factor (beta-NGF) (P01138 122-241): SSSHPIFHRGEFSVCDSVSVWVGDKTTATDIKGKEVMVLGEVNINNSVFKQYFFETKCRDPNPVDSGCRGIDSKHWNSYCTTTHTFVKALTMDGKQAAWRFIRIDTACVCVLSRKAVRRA
Regarding B1, the “IC50, FLIPR calcium mobilisation” value amounted to 0.45 nM; the “IC50, PC12 cell survival” value amounted to 0.53 nM; the “IC50, TF-1 cell proliferation” value is 0.1 nM.

As to B2, the “IC50, FLIPR calcium mobilisation” value is 0.33 nM and the “IC50, PC12 cell survival” value is 0.4 nM.

Take B3: the “IC50, FLIPR calcium mobilisation” value was 0.37 nM and the “IC50, PC12 cell survival” value came out at 1.1 nM.

Regarding B4, the “IC50, FLIPR calcium mobilisation” value came to 0.32 nM and the “IC50, PC12 cell survival” value came to 0.86 nM.

For the molecule B5, the “IC50, FLIPR calcium mobilisation” value worked out at 0.35 nM and the “IC50, PC12 cell survival” value worked out at 0.59 nM.

With B6, the “IC50, FLIPR calcium mobilisation” value was 0.34 nM and the “IC50, PC12 cell survival” value worked out at 0.48 nM.

On to B7, for which the “IC50, FLIPR calcium mobilisation” value turned out to be 0.26 nM and the “IC50, PC12 cell survival” value was 0.41 nM.

On to B8, for which the “IC50, FLIPR calcium mobilisation” value is 0.22 nM; the “IC50, PC12 cell survival” value was determined as 0.4 nM; the “IC50, TF-1 cell proliferation” value came out at 0.26 nM.

For the next experiment, the target named is rat nerve growth factor (beta-NGF) (rat, UniProt P25427 122-241). In words: cell-based or functional assay.
Chain of rat nerve growth factor (beta-NGF) (P25427 122-241): as the sequence (P01139 122-241) above, with A40G, R50K, S61P, E94D, T117A counted along it
As for B1, the “IC50, FLIPR calcium mobilisation” value was 0.3 nM; the “IC50, PC12 cell survival” value turned out to be 0.42 nM; the “IC50, TF-1 cell proliferation” value was 0.12 nM.

On to B2, for which the “IC50, FLIPR calcium mobilisation” value is 0.13 nM.

Turning to B3, the “IC50, FLIPR calcium mobilisation” value amounted to 0.15 nM.

Consider B4, for which the “IC50, FLIPR calcium mobilisation” value turned out to be 0.33 nM and the “IC50, PC12 cell survival” value is 2.63 nM.

For the molecule B5, the “IC50, FLIPR calcium mobilisation” value amounted to 0.18 nM.

Take B6: the “IC50, FLIPR calcium mobilisation” value came to 0.12 nM.

As for B7, the “IC50, FLIPR calcium mobilisation” value stood at 0.15 nM and the “IC50, PC12 cell survival” value is 0.41 nM.

For B8, the “IC50, FLIPR calcium mobilisation” value came out at 0.21 nM; the “IC50, PC12 cell survival” value worked out at 0.38 nM; the “IC50, TF-1 cell proliferation” value turned out to be 0.08 nM.

Another experiment addresses mouse nerve growth factor (mouse, UniProt P01139 122-241). Briefly: cell-based or functional assay.
In the case of B1, the “IC50, FLIPR calcium mobilisation” value turned out to be 0.28 nM and the “IC50, TF-1 cell proliferation” value was 0.1 nM.

On to B2, for which the “IC50, FLIPR calcium mobilisation” value is 0.12 nM.

Regarding B3, the “IC50, FLIPR calcium mobilisation” value was determined as 0.16 nM.

As for B4, the “IC50, FLIPR calcium mobilisation” value turned out to be 0.27 nM.

As to B5, the “IC50, FLIPR calcium mobilisation” value came out at 0.18 nM.

Regarding B6, the “IC50, FLIPR calcium mobilisation” value came out at 0.11 nM.

Turning to B7, the “IC50, FLIPR calcium mobilisation” value was 0.16 nM.

Regarding B8, the “IC50, FLIPR calcium mobilisation” value was determined as 0.14 nM and the “IC50, TF-1 cell proliferation” value is 0.07 nM.
